Data taken from doi:10.1101/2025.06.12.659276.

Target: mGq fused to GFP10
Test: BRET (mGq-GFP recruitment to Rluc-fused receptor)
Conditions: n = 4, parent: est. 0.30, read off a plot

## US28-Rluc (from UniProt P69332) US28-PDCT: S>A at 12 sites and T>V at 2 sites after helix 8, in the printed stretch QRLF[S>A]RDV[S>A]WYH[S>A]M[S>A]F[S>A]RR[S>A][S>A]P[S>A]RRE[T>V][S>A][S>A]D[T>V]L[S>A]DEVCRV[S>A]QIIP; residue numbers not printed
Parental HEK-293 cells
  response: 0.31
β-arrestin 1/2-deficient (Δβarr1/2) HEK-293 cells
  response: 0.26
